This is an account of results in IntAct's records for PubMed 20543817.

B1: Neuroligin-2 (Rattus norvegicus (Rat)), Q62888-2 (parent)
chain: MWLLALCLVGLAGAQRGGGGPGGGAPGGPGLGLGSLGEERFPVVNTAYGRVRGVRRELNNEILGPVVQFLGVPYATPPLGARRFQPPEAPASWPGVRNATTLPPACPQNLHGALPAIMLPVWFTDNLEAAATYVQNQSEDCLYLNLYVPTEDDIRDSGKKPVMLFLHGGSYMEGTGNMFDGSVLAAYGNVIVATLNYRLGVLGFLSTGDQAAKGNYGLLDQIQALRWLSENIAHFGGDPERITIFGSGAGASCVNLLILSHHSEGLFQKAIAQSGTAISSWSVNYQPLKYTRLLAAKVGCDREDSTEAVECLRRKSSRELVDQDVQPARYHIAFGPVVDGDVVPDDPEILMQQGEFLNYDMLIGVNQGEGLKFVEDSAESEDGVSASAFDFTVSNFVDNLYGYPEGKDVLRETIKFMYTDWADRDNGEMRRKTLLALFTDHQWVAPAVATAKLHADYQSPVYFYTFYHHCQAEGRPEWADAAHGDELPYVFGVPMVGATDLFPCNFSKNDVMLSAVVMTYWTNFAKTGDPNQPVPQDTKFIHTKPNRFEEVVWSKFNSKEKQYLHIGLKPRVRDNYRANKVAFWLELVPHLHNLHTELFTTTTRLPPYATRWPPRTPGPGTSGTRRPPPPATLPPESDIDLGPRAYDRFPGDSRDYSTELSVTVAVGASLLFLNILAFAALYYKRDRRQELRCRRLSPPGGSGSGVPGGGPLLPTAGRELPPEEELVSLQLKRGGGVGADPAEALRPACPPDYTLALRRAPDDVPLLAPGALTLLPSGLGPPPPPPPPSLHPFGPFPPPPPTATSHNNTLPHPHSTTRV
B2: Neuroligin-1 (Rattus norvegicus (Rat)), Q62765-2 (parent)
chain: MALPRCMWPNYVWRAMMACVVHRGSGAPLTLCLLGCLLQTFHVLSQKLDDVDPLVTTNFGKIRGIKKELNNEILGPVIQFLGVPYAAPPTGEHRFQPPEPPSPWSDIRNATQFAPVCPQNIIDGRLPEVMLPVWFTNNLDVVSSYVQDQSEDCLYLNIYVPTEDDIRDSGGPKPVMVYIHGGSYMEGTGNLYDGSVLASYGNVIVITVNYRLGVLGFLSTGDQAAKGNYGLLDLIQALRWTSENIGFFGGDPLRITVFGSGAGGSCVNLLTLSHYSEGLFQRAIAQSGTALSSWAVSFQPAKYARILATKVGCNVSDTVELVECLQKKPYKELVDQDVQPARYHIAFGPVIDGDVIPDDPQILMEQGEFLNYDIMLGVNQGEGLKFVENIVDSDDGVSASDFDFAVSNFVDNLYGYPEGKDVLRETIKFMYTDWADRHNPETRRKTLLALFTDHQWVAPAVATADLHSNFGSPTYFYAFYHHCQTDQVPAWADAAHGDEVPYVLGIPMIGPTELFPCNFSKNDVMLSAVVMTYWTNFAKTGDPNQPVPQDTKFIHTKPNRFEEVAWTRYSQKDQLYLHIGLKPRVKEHYRANKVNLWLELVPHLHNLNDISQYTSTTTKVPSTDITLRPTRKNSTPVTSAFPTAKQDDPKQQPSPFSVDQRDYSTELSVTIAVGASLLFLNILAFAALYYKKDKRRHDVHRRCSPQRTTTNDLTHAPEEEIMSLQMKHTDLDHECESIHPHEVVLRTACPPDYTLAMRRSPDDVPLMTPNTITMIPNTIPGIQPLHTFNTFTGGQNNTLPHPHPHPHSHSTTRV

The variants in the first test derive from B1. The note with it: with Nrxn1, Q63373-3.
Target sequence in this assay (Q63373 other isoform, or with tags, fused parts or gaps): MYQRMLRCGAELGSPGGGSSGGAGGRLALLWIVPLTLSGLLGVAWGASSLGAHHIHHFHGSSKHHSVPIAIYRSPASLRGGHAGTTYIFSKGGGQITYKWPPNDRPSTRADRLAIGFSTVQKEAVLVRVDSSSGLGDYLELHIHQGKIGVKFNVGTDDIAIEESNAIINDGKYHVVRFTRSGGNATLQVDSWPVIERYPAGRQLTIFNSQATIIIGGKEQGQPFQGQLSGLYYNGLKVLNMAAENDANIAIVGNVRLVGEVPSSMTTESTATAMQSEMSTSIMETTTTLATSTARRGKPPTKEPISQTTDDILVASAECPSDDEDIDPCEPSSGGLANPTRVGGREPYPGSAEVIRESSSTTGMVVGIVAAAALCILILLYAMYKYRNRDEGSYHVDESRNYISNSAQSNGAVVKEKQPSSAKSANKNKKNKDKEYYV
On to Q458G, for which the “effect of a mutation on the interaction” value is recorded as “increasing interaction”.

Variants of B2 are the subject of another test. As to conditions: with Nrxn1, Q63373-3.
Target sequence in this assay (Q63373 other isoform, or with tags, fused parts or gaps): as above
With G471A, the “effect of a mutation on the interaction” value was “disrupting interaction”.
